Sequences and labels used below:
T1: wild type LIN-45 Raf (yeast two-hybrid fusion) (C. elegans, UniProt Q07292 1-813)
T1 construct: Tested against SUR-8 and against LET-60 Ras and its mutants; The constructs for the two tests may differ; not shown: two-hybrid fusion partner
T1 sequence (looked up): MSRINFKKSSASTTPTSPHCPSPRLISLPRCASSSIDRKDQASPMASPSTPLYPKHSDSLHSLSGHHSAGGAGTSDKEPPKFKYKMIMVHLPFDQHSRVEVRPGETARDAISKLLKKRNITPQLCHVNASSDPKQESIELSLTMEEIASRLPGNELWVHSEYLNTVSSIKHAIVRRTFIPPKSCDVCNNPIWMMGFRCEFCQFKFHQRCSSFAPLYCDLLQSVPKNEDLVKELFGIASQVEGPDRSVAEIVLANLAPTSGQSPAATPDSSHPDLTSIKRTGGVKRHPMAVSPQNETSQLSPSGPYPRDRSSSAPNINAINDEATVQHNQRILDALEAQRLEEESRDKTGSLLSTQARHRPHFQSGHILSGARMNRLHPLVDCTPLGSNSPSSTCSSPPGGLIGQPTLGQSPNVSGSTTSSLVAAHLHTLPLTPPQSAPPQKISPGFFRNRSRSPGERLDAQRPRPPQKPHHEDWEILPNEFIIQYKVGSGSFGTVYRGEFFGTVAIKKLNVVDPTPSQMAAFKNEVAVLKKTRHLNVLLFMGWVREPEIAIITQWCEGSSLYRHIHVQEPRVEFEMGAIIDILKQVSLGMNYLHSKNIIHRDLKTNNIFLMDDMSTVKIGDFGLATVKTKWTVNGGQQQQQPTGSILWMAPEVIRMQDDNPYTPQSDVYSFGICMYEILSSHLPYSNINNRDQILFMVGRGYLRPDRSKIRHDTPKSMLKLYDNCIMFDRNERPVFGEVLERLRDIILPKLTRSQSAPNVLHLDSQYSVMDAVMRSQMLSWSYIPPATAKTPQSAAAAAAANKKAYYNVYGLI

T2: C. elegans SUR-8 deletion mutant lacking the N-terminal 88 amino acid non-LRR region (C. elegans, UniProt Q22875 89-559)
T2 construct: Range 89-559 is worked out from 'deletion of the N-terminal 88 amino acid' and the printed length of 559
T2 sequence: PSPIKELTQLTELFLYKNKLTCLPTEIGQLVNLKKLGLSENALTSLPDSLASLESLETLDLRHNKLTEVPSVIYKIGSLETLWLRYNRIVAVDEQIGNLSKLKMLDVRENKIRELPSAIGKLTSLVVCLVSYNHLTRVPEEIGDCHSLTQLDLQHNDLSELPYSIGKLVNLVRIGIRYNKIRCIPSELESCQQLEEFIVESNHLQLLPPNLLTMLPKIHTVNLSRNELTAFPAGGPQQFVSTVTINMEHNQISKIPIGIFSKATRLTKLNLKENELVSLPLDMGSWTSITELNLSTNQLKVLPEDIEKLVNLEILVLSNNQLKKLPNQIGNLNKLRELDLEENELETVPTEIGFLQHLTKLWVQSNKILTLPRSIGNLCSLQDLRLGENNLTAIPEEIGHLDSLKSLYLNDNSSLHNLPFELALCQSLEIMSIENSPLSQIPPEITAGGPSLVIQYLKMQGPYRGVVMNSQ

T3: C. elegans SUR-8 ku242 C233Y (yeast two-hybrid fusion) (C. elegans, UniProt Q22875 1-559)
T3 sequence: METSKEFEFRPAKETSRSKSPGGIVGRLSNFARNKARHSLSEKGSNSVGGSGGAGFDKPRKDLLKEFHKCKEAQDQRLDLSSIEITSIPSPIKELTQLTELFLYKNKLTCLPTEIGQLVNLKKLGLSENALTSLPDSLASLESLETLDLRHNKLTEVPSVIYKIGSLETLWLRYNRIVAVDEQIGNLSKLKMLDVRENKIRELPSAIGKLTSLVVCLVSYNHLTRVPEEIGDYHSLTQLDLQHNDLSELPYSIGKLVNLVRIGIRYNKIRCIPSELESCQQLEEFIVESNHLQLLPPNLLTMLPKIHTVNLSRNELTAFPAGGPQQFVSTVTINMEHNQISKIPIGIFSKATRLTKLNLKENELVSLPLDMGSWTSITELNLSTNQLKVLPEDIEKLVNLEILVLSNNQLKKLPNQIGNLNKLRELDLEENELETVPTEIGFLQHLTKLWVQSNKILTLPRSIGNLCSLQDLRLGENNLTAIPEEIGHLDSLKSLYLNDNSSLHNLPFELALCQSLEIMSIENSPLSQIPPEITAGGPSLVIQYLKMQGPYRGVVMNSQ

B1: C. elegans SUR-8 fused to the GAL4 activation domain (other, not shown: large carriers)
chain: T3 sequence with Y233C
notes: Yeast two-hybrid construct: 1.7 kb sur-8 cDNA cloned in-frame into pACT2; also called Ce SUR-8; wild-type SUR-8
B2: MPK-1 MAP kinase (yeast two-hybrid fusion) (enzyme, C. elegans, UniProt P39745-2 1-376, looked up)
chain: MADGEAVISTVNNVEEVHGQLFEVAPRYVNLSYIGEGAYGMVASALDTITRDRVAIKKISPFEHQTFCQRTLREIKILNRFKHENIINIQEIIRSETVDSLKDIYIVQCLMETDLYKLLKTQKLSNDHVCYFLYQILRGLKYIHSANVLHRDLKPSNLLLNTTCDLKICDFGLARVTDPQTDHTGFLTEYVATRWYRAPEIMLNSKGYTKSIDVWSVGCILAEMLSNRPLFPGKHYLDQLNLILAVVGSPSNADLQCIINDKARSYLISLPHKPKQPWARLYPGADPRALDLLDKMLTFNPHNRIDIEQALAHPYLEQYYDPGDEPVCEEPFTLEMEFDDLPKEKLKELIWEEAEAHHRRMEAEAAARNNGGQNPV
notes: not shown: two-hybrid fusion partner
B3: MEK-2 MEK (yeast two-hybrid fusion) (enzyme, C. elegans, UniProt Q10664 1-387, looked up)
chain: MSSGKRRNPLGLSLPPTVNEQSESGEATAEEATATVPLEEQLKKLGLTEPQTQRLSEFLQVKEGIKELSEDMLQTEGELGHGNGGVVNKCVHRKTGVIMARKLVHLEIKPSVRQQIVKELAVLHKCNSPFIVGFYGAFVDNNDISICMEYMDGLSLDIVLKKVGRLPEKFVGRISVAVVRGLTYLKDEIKILHRDVKPSNMLVNSNGEIKLCDFGVSGMLIDSMANSFVGTRSYMAPERLTGSHYTISSDIWSFGLSLVELLIGRYPVPAPSQAEYATMFNVAENEIELADSLEEPNYHPPSNPASMAIFEMLDYIVNGPPPTLPKRFFTDEVIGFVSKCLRKLPSERATLKSLTADVFFTQYADHDDQGEFAVFVKGTINLPKLNP
notes: as for B2
B4: wild type LET-60 Ras fused to the GAL4 DNA binding domain (enzyme, UniProt P04386 1-147, looked up)
chain: MKLLSSIEQACDICRLKKLKCSKEKPKCAKCLKNNWECRYSPKTKRSPLTRAHLTEVESRLERLEQLFLLIFPREDLDMILKMDSLQDIKALLTGLFVQDNVNKDAVTDRLASVETDMPLTLRQHRISATSSSEESSNKGQRQLTVSMTEYKLVVVGDGGVGKSALTIQLIQNHFVEEYDPTIEDSYRKQVVIDGETCLLDILDTAGQEEYSAMRDQYMRTGEGFLLVFAVNEAKSFENVANYREQIRRVKDSDDVPMVLVGNKCDLSSRSVDFRTVSETAKGYGIPNVDTSAKTRMGVDEAFYTLVREIRKHRERHDNNKPQKKKKCQIM

The target of assay [1] is T1, wild type LIN-45 Raf (yeast two-hybrid …). As to the kind of experiment: yeast two-hybrid.
Assay [2] deals with B1. The assay can be described thus: yeast two-hybrid, His and LacZ reporters.
The target of assay [3] is T2, C. elegans SUR-8 deletion mutant …. The assay can be described thus: yeast two-hybrid.
In assay [4] the target is T3, C. elegans SUR-8 ku242 C233Y (yeast …). The assay can be described thus: yeast two-hybrid.

This note sets out measurements from US6506889 (UNIVERSITY TECHNOLOGY, dated 2003).

Positions count from the first letter of the chain named.

For B1, the binding result in assay [1] is on record as “no binding”.

B2: the binding result in assay [2] is “no binding”.

B3: the binding result in assay [2] is on record as “no binding”.

B4: the binding result in assay [3] and in assay [4] was “no binding” each time.
